Results as given in patent publication US20250000944A1, “USE OF RECOMBINANT CALRETICULIN IN HAIR GROWTH, HAIR BREEDING, HAIR PROTECTION OR ANTI-HAIR LOSS AND RELATED PRODUCT” (BEIJING YITUBAIHUI BIOTECH CO., LTD, priority 2021, published 2025).
Entries after “also recorded” stand apart in the source; their conditions may differ.

Tested on: AGA (androgenic alopecia) model mice
Experiment: Third experiment: hair growth score in DHT-induced AGA model mice
Format: in vivo, C57BL/6N male mice
Conditions: Day 17, P<0.05
Experimental: C57BL/6N male mice, 6-7 weeks old, weighing (18-20) g, 50 mice, with the animal license number of SCXK (Beijing) 2021-0006, were kept in a 12 h light/12 h dark environment, with free access to food and water. Adaptive feeding was performed for about 1 week.
The hair in an area of about 2 cm×3 cm at the border of the spine was shaved using an electric shaver. The depilatory area was applied with 8% sodium sulfide solution. After 90±10 s, the depilatory area on the back was cleaned with cotton balls dipped in water, the residual sodium sulfide was washed away with a washing bottle, and then the mice were wiped dry. Because the hair follicle cycle of mice was in the resting phase at this time, the mouse skin was pink. Mice were randomly divided into groups using Excel software, 10 mice in each group, and the modeling was established after 24 h and the drug was administered for 17 consecutive days. The AGA model was established by injecting dihydrotestosterone into the experimental mice. Dihydrotestosterone (DHT) solution was injected subcutaneously at multiple points every day, 100 μL/mouse (5 mg/kg body weight), and then the drug was administered after 3 h of absorption. CRT-2 and CRT-1 protein solutions were applied externally. 100 μL of protein solution was applied, and 100 μl of minoxidil MNX was applied. The CRT and MNX combination group was first applied with CRT-2 protein solution and then MNX 2 hours later. The solvent formula comprised 50% ethanol, 20% propylene glycol, and 30% pure water.
Scoring was based on the coverage of hair growth: • 0 points: no hair growth, pink in the hair removal area; • 1 point: gray in the hair removal area, hair coverage area E<20%; • 2 points: black in the hair removal area, hair coverage area 20%<E<40%; • 3 points: black in the hair removal area with a little hair growth, hair coverage area 40%<E<60%; • 4 points: black in the hair removal area with some hair growth, hair coverage area 60%<E<80%; • 5 points: black in the hair removal area, hair coverage area 80%<E<100%.
The skin color changes of mice were observed before administration every day. The hair removal time of mice was designated as Day 0, the first day of administration was designated as Day 1, and so on. The hair growth of each mouse was recorded and analyzed on Day 7, Day 9, Day 11, Day 13, Day 15, and Day 17.

B1: CRT-2: fragment (1-349 aa) of recombinantly expressed CRT, amino acid sequence SEQ ID NO: 9 (protein)
chain: EPAVYFKEQFLDGDGWTSRWIESKHKSDFGKFVLSSGKFYGDEEKDKGLQTSQDARFYALSASFEPFSNKGQTLVVQFTVKHEQNIDCGGGYVKLFPNSLDQTDMHGDSEYNIMFGPDICGPGTKKVHVIFNYKGKNVLINKDIRCKDDEFTHLYTLIVRPDNTYEVKIDNSQVESGSLEDDWDFLPPKKIKDPDASKPEDWDERAKIDDPTDSKPEDWDKPEHIPDPDAKKPEDWDEEMDGEWEPPVIQNPEYKGEWKPRQIDNPDYKGTWIHPEIDNPEYSPDPSIYAYDNFGVLGLDLWQVKSGTIFDNFLITNDEAYAEEFGNETWGVTKAAEKQMKDKQDEEQR
In the case of B1, the “hair growth score compared with the Model group” value (external application 100 μL, CRT 0.35 mg/ml, MNX 5 mg/ml) is reported as “significantly increased” and the “hair growth score compared with the CRT-1 group” value (external application) is reported as “better than; also recorded: significantly increased”.
